Legend:
[1] = target: cynomolgus αVβ6 on cells (cynomolgus); experiment: FACS, HEK-293 cells transfected with cynomolgus αV and β6, day 1
[2] = target: human αV on parental A375M cells (αVβ3 and αVβ5) (human) (UniProt P06756); experiment: FACS, parental A375M cells, day 1
[3] = target: cynomolgus αVβ6 on cells (cynomolgus); experiment: FACS, HEK-293 cells transfected with cynomolgus αV and β6, day 2
[4] = target: human αV on parental A375M cells (αVβ3 and αVβ5) (human) (UniProt P06756); experiment: FACS, parental A375M cells, day 2
[5] = target: human αVβ6 integrin on cells (human) (UniProt P06756); experiment: FMAT, 1 ug/mL on HEK 293 cells stably overexpressing αVβ6
Chain of human αVβ6 integrin on cells (human) (P06756 31-1048, chain 1 of 2): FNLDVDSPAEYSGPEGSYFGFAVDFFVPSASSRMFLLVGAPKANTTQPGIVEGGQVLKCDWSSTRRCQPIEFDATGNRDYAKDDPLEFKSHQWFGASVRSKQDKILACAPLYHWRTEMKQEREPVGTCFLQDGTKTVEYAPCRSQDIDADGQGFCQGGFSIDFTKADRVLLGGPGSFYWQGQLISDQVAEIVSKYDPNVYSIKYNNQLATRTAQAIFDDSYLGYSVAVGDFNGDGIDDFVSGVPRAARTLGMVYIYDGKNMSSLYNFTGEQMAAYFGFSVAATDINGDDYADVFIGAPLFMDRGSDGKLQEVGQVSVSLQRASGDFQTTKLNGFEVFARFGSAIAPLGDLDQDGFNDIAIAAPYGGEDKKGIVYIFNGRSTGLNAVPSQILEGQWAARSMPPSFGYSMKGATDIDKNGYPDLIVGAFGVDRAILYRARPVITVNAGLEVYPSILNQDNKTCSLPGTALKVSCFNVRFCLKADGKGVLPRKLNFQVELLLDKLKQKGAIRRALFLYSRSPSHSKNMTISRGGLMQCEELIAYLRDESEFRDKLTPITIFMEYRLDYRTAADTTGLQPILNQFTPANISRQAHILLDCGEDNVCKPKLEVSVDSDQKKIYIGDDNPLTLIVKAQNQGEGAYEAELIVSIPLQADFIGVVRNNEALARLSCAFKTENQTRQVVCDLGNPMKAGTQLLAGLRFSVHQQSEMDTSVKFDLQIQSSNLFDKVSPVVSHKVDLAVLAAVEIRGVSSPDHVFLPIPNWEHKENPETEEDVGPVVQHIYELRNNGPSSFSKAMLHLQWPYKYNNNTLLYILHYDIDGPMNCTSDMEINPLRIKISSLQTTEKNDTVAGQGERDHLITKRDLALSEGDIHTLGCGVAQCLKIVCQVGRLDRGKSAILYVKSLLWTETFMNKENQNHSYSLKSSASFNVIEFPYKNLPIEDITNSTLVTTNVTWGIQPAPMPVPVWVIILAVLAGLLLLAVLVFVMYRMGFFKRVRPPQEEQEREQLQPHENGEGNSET
Chain of human αVβ6 integrin on cells (human) (P18564 22-788, chain 2 of 2, further chain): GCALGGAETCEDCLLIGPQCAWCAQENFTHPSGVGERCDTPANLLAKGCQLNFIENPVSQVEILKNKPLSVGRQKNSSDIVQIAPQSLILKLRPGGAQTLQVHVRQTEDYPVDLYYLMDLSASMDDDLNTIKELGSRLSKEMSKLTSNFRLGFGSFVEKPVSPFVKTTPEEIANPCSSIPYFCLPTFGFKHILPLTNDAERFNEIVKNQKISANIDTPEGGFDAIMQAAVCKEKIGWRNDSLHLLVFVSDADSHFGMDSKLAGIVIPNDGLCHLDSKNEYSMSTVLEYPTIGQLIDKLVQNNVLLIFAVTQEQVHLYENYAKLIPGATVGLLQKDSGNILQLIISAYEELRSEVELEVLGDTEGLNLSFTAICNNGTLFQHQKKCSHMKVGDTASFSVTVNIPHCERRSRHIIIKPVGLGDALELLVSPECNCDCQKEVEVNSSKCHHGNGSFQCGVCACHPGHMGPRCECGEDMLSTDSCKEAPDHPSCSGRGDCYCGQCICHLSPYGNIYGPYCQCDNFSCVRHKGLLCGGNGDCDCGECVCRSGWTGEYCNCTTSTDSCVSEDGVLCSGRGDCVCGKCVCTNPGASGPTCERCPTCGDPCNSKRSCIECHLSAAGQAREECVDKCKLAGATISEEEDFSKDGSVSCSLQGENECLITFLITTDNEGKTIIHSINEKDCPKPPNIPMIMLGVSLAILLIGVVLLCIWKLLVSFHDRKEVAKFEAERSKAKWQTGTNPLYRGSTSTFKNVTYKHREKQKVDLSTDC

[6] = target: human αV on parental A375M cells (αVβ3 and αVβ5) (human) (UniProt P06756); experiment: FACS, 1 ug/ml, parental A375M cells, day 1
[7] = target: mouse αVβ6 on cells (mouse) (UniProt P43406); experiment: FACS, K562 cells expressing mouse αVβ6 (parental 15)
Chain of mouse αVβ6 on cells (mouse) (P43406 31-1044, chain 1 of 2): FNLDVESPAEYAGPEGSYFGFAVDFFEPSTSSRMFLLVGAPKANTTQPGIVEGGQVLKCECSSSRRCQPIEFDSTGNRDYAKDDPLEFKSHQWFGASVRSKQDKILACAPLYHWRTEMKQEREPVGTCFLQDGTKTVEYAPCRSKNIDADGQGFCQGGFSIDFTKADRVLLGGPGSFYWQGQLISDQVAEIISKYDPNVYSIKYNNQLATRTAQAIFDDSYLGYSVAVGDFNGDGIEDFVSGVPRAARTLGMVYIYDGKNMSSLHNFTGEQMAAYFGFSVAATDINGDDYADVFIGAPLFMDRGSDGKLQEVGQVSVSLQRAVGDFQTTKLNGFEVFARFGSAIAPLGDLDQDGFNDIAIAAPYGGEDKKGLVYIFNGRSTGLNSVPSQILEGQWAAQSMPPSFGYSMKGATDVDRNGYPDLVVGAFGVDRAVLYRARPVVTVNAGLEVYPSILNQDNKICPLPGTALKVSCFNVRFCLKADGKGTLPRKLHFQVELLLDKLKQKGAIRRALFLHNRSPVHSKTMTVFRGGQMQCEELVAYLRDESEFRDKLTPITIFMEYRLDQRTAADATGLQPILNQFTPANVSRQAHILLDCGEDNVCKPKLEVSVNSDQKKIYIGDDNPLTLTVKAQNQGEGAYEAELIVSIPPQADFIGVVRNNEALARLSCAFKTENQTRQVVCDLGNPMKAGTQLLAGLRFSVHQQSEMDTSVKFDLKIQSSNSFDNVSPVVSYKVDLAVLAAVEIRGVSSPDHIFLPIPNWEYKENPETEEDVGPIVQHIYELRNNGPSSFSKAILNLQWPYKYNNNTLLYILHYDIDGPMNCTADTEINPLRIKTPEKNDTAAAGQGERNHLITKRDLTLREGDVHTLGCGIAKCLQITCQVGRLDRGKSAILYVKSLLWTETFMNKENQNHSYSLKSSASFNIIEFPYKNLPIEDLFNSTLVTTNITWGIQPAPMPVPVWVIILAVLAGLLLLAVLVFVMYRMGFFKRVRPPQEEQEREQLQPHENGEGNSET
Chain of mouse αVβ6 on cells (mouse) (Q9Z0T9 22-787, chain 2 of 2, further chain): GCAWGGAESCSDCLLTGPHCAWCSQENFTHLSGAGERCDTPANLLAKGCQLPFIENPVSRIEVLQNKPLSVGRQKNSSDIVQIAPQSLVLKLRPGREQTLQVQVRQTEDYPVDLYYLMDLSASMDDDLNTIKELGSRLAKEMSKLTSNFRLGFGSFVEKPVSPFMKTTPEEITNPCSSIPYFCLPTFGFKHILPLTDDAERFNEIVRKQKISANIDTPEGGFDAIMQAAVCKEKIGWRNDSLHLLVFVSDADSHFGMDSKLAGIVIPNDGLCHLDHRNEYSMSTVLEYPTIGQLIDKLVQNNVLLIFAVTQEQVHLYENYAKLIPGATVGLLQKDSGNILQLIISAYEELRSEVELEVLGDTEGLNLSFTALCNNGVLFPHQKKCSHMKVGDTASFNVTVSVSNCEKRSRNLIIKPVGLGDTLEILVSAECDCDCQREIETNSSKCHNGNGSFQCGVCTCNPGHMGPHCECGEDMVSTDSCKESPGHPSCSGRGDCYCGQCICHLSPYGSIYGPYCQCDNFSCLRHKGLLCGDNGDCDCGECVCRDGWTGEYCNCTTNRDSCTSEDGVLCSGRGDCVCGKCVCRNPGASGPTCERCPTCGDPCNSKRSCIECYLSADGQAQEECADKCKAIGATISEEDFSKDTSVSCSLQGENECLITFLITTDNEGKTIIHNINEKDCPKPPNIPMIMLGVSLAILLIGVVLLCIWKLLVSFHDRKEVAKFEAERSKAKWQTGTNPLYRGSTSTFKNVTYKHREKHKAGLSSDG

[8] = target: human αV on parental A375M cells (αVβ3 and αVβ5) (human) (UniProt P06756); experiment: FACS, 1 ug/ml, parental A375M cells, day 2
[9] = target: human αVβ6 integrin on cells (human) (UniProt P06756); experiment: cell-based or functional assay
[10] = target: cynomolgus αVβ6 on cells (cynomolgus); experiment: FACS, K562 cells expressing cynomolgus αVβ6 (parental 15)
[11] = target: cynomolgus αVβ6 on cells (cynomolgus); experiment: FACS, 1 ug/ml, HEK-293 cells transfected with cynomolgus αV and β6, day 2
[12] = target: cynomolgus β6 on transfected HEK-293 cells (cynomolgus); experiment: FACS, transiently transfected HEK-293 cells
[13] = target: cynomolgus αVβ6 on cells (cynomolgus); experiment: FACS, transiently transfected HEK-293 cells
[14] = target: cynomolgus αVβ6 on cells (cynomolgus); experiment: FACS, 1 ug/ml, HEK-293 cells transfected with cynomolgus αV and β6, day 1
soluble αVβ6 (human) = soluble αVβ6 (human) (UniProt P06756); experiment: ELISA, 1 ug/mL on coated soluble αVβ6
[15] = target: α5β1 integrin on K562 cells (UniProt P08648); experiment: cell-based or functional assay
[16] = target: human αV on parental A375M cells (αVβ3 and αVβ5) (human) (UniProt P06756); experiment: cell-based or functional assay
[17] = target: α4β1 integrin on J6.77 cells (UniProt P13612); experiment: cell-based or functional assay
[18] = target: cynomolgus αVβ6 on cells (cynomolgus); experiment: FACS, K562 cells expressing cynomolgus αVβ6 (parental 12)
[19] = target: mouse αVβ6 on cells (mouse) (UniProt P43406); experiment: FACS, K562 cells expressing mouse αVβ6 (parental 12)
[20] = target: mouse αVβ6 on cells (mouse) (UniProt P43406); experiment: FACS, K562 cells expressing mouse αVβ6 (parental 23)
[21] = target: cynomolgus αVβ6 on cells (cynomolgus); experiment: FACS, K562 cells expressing cynomolgus αVβ6 (parental 23)
[22] = target: cynomolgus αVβ6 on cells (cynomolgus); experiment: FACS, K562 cells expressing cynomolgus αVβ6 (parental 46)
[23] = target: mouse αVβ6 on cells (mouse) (UniProt P43406); experiment: FACS, K562 cells expressing mouse αVβ6 (parental 46)

Mouse IgG2 with Murine Secondary Antibody
Mac AVB6 % Cells Shifted [1]: 1%
Mac AVB6 GeoMean [1]: 8.85
A375M % Shifted Cells [2]: 4%
A375M GeoMean [2]: 1.67
Mac AVB6 % Cells Shifted [3]: 0%
Mac AVB6 GeoMean [3]: 11.2
A375M % Shifted Cells [4]: 3%
A375M GeoMean [4]: 11.2

murine αVβ6 antibody (Cat#MAB2077z, Chemicon)
FMAT FL1XCount [5]: 44200
A375M % Shifted Cells [6]: 30%
A375M GeoMean [6]: 2.03
Geometric Mean Shift (arbitrary units) [7]: 122
A375M % Shifted Cells [8]: 5%
A375M GeoMean [8]: 15.4
Estimated IC50, adhesion of HT29 cells to TGFβLAP, n = 1 [9]: 0.226 µg/mL
Estimated IC50, adhesion of HT29 cells to TGFβLAP, n = 2 [9]: 0.185 µg/mL
Estimated IC50, adhesion of HT29 cells to TGFβLAP, n = 3 [9]: 0.286 µg/mL
Geometric Mean Shift (arbitrary units) [10]: 84
Mac AVB6 % Cells Shifted [11]: 11%
Mac AVB6 GeoMean [11]: 28.1
percent of cells shifted [12]: 5%
percent of cells shifted [13]: 20%
Mac AVB6 % Cells Shifted [14]: 42%
Mac AVB6 GeoMean [14]: 55.5
ELISA OD (soluble αVβ6 (human)): 6 OD

Human IgG Isotype Control (antibody)
Mac AVB6 % Cells Shifted [1]: 1%
Mac AVB6 GeoMean [1]: 9.54
% Inhibition, adhesion of K562 cells to fibronectin [15]: -12%
Percent Inhibition, adhesion of K562 cells to FN9-10 peptide of fibronectin, 5 µg/ml [15]: 11%
Percent Inhibition, adhesion of A375M cells to osteopontin peptide, 5 µg/ml [16]: 3%
A375M % Shifted Cells [2]: 5%
A375M GeoMean [2]: 1.66
Mac AVB6 % Cells Shifted [3]: 0%
Mac AVB6 GeoMean [3]: 7.39
A375M % Shifted Cells [4]: 1%
A375M GeoMean [4]: 7.23

Human IgG4 (antibody)
Percent Inhibition, adhesion of J6.77 cells to CS-1 peptide of fibronectin, 5 ug/ml [17]: 15%

Mouse IgG1 (antibody)
Geometric Mean Shift (arbitrary units) [18]: 13
Geometric Mean Shift (arbitrary units) [19]: 20

Mouse IgG Control (antibody)
Percent Inhibition, adhesion of A375M cells to osteopontin peptide, 5 µg/ml [16]: 5%

Mouse IgG2a (antibody)
Geometric Mean Shift (arbitrary units) [20]: 36
Geometric Mean Shift (arbitrary units) [21]: 25

Human IgG1 (antibody)
Geometric Mean Shift (arbitrary units) [22]: 54
Percent Inhibition, adhesion of J6.77 cells to CS-1 peptide of fibronectin, 5 ug/ml [17]: 26%
Percent Inhibition, adhesion of J6.77 cells to CS-1 peptide of fibronectin, 5 µg/ml [17]: -6%
percent of cells shifted [12]: 1%
percent of cells shifted [13]: 0%
Geometric Mean Shift (arbitrary units) [23]: 108

Human IgG2 (antibody)
Percent Inhibition, adhesion of J6.77 cells to CS-1 peptide of fibronectin, 5 ug/ml [17]: 13%
Percent Inhibition, adhesion of J6.77 cells to CS-1 peptide of fibronectin, 5 µg/ml [17]: -9%

From patent US20150166663A1
